According to the nanobody polyreactivity screen of Harvey et al. (2022):

Assay: yeast display, Sf9 membrane polyspecificity reagent, FACS + sequencing; frameworks hold sequencing errors
Summary of the method: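 In a synthetic yeast display library (Saccharomyces cerevisiae BJ5465), nanobody expression was induced with galactose for 36–48 hours. FACS gates were set low and high (top ~1%) using anti-HA fluorescence for expression and streptavidin fluorescence for binding of the Sf9 membrane reagent. Each polyreactivity label is drawn from the gate of origin.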

Q: With “QVQLVESGGGLVQAGGSLRLSCAASGNIFADYAMGWYRQAPGKERELVAAISRGGITSYADSVKGRFTISRDNAKNTVYLQMNSLKPEDTAVYYCATDRYDVYDSLGFGYWGQGTQVTVSS” as the sequence, how does the “polyreactivity (PSR sort gate)” value read?
A: low polyreactivity

Q: Which “polyreactivity (PSR sort gate)” value does the source give for “QVQLVESGGGLVQAGGSLRLSCAASGSIFGYYAMGWYRQAPGKEREFVAAISVSGSRTYYADSVKGRFTISRDNAKNTVYLQMNSLKPEYTAVYYCAARVDYRHRYYYWGQGTLVTVSS” here?
A: high polyreactivity

Q: For “QVQLVESCGGLVQAGGSLRLSCAASGFIFSQNAMGWYIQAPGKEREIVAVISARGGRTYYADSVKGRFTISRDNAKNTVYLQMNSLKPEDTAVYDCARRDFWWSRRIFGYWGQGTQVTVSS”, which “polyreactivity (PSR sort gate)” value is on record?
A: high polyreactivity

Q: Which “polyreactivity (PSR sort gate)” value does the source give for “QVQLVESGGGLVQAGGSLRLSCAASGRIFKSYAMGWYRPAPGKERELVAAINWSGGSTYYADSVKGRFTISRDTAKNTVYLQMNSLKPEDTAVYYCNALYAVRSYDSWGQGTQVTVSS” here?
A: high polyreactivity

Q: Which “polyreactivity (PSR sort gate)” value does the source give for “QVQLVESGGGLVQAGGSLRLSCAASGFIFKGYAMGWYRQAPGKERELVAAISSGGSTNYADSVKGRFTISRDNAKNTVYLQMNSLKPEDTAVYYCAAGRYIRHYWYGYWGQGTQVTVSS” here?
A: high polyreactivity

Q: Which “polyreactivity (PSR sort gate)” value does the source give for “QVHLVDSGGGLVQAGGSLSLSCAASGIIFLTNAMGWYRQAPGTERELVAAITAIGGSTYYADSVKGSFTISRDTSKYTVYLQMNSLKPEDTAGYYCAADFSYVYYLYDYWGQGTQVTVSS” here?
A: low polyreactivity

Q: With “QVQLVESGGGLVQAGGSLRLSWAASGSTFVVNAMGWYRQAPGKERELVAAITQDGDGTYYADSVKGRFTISRDNAKNTVYLQMNSLKPEDTAVYYCAAYPFYGPYDEFDYWGQGTEVTVSS” as the sequence, how does the “polyreactivity (PSR sort gate)” value read?
A: low polyreactivity

Q: For “QVQLVESGGGLVQAGGRLRLSCADSGRIFLYYAKGWYRQAPGKEPELVAAISGGGGRTYYADSVKGRFTISRDNAKNTVYLQMNSLKPEDTAVYYWAAGVYTGQHEFDYWGQGTQVTVSS”, which “polyreactivity (PSR sort gate)” value is on record?
A: low polyreactivity

Q: With “QVQLVESGGGLVQAGGSLRLSCAASGFIFKDNARGWYRQATGKEREFVASITASGGSTTYADSVKGRFTISRDTAKNTVYLQMTSLKPEDTAVYYCAARVGWNKRRYDYWGQGTQVTVSS” as the sequence, how does the “polyreactivity (PSR sort gate)” value read?
A: low polyreactivity

Q: Which “polyreactivity (PSR sort gate)” value does the source give for “QVQLVESGGGLVQAGGSLRLSCAASGSTFFGNTMGWYRKAPGKERELVATITRRGGSTYYADSVKGRFTISRDNAKNTVYLQMNSLKPEDTAVYYCAKRGPYTKYDYWGQGTQVTVSS” here?
A: low polyreactivity

Q: For “QVQLVESGGGLVQAGGSLRLSCAASGSIFDSYAMGWYRQAPGKERELVAAISRSGSRTYYADSVKGRFTISRDNAKNTVYLQMNSLKPEDTAVYYCAAGLSGYSRKIYYWGQGTQVTVSS”, which “polyreactivity (PSR sort gate)” value is on record?
A: high polyreactivity

Q: For “QVQLVESGGALVQAGGSLRLSCAASGRTFWRNTMGWYRQAPGKEREFVAAITFSGVRTYYADSVKGRFTISRDNAKNTVYLQMNSLKPQDTAVYYCAKSRQYIGGFDYWGQGTQVTVSS”, which “polyreactivity (PSR sort gate)” value is on record?
A: high polyreactivity

Q: For “QVQLVESGGRLVQAGGSLRLSCAASGSIFAVNTMGWYRQAPGKERELVAAISQRGSSTYYADSVKGRFTISRDNAKNTVYLQMNSLKPEDTAVYYCAKRFIYGRYNYWGQGTQVTVSS”, which “polyreactivity (PSR sort gate)” value is on record?
A: high polyreactivity

Q: Which “polyreactivity (PSR sort gate)” value does the source give for “QVQLVDSGGGLVQAGGSRRVSCAASAFTFLWNAMGWYRQAPGKEREMVAAINGNSGNTYYADSVKGRFTLSVDNAKNTVYLQMNSMKAEDTAVYYCAKQGNNIPCYRPYGDYYYWGQGTQVTVSS” here?
A: low polyreactivity

Q: Which “polyreactivity (PSR sort gate)” value does the source give for “QVQLVESGGGLVQAGGSLRLSCAASGLTFLNNAMGWYRQAHGKERELVAAISDGGSTNYADSVKGRFTISRDNAKNTVYLQMNSLKPEDTAVYYCGADYTSASYGSWGQGTQVTVSS” here?
A: low polyreactivity

Q: With “QVQLVESGGGLVQAGGSLRLSCAASGFTFGYYAMGWYRQAPGKERELVAAISKRGGSTYYADSVKGRFTISRDNAKNTVYLQMNSLKPEDTAVYYCATRYTGYPFYGYDYWGQGTQVTVSS” as the sequence, how does the “polyreactivity (PSR sort gate)” value read?
A: high polyreactivity

Q: With “QVQLVESGGGLVQAGGSLRLSCAASGSTLYYYAMGWYRQAPGKERELVAAISSGGRTYYADSVKGRFTISRDNAKNTVYLQMNSLKPEDTAVYYCNAVRYQKIFDYWGQGTQVTVSS” as the sequence, how does the “polyreactivity (PSR sort gate)” value read?
A: high polyreactivity

Q: For “QVQHVESGGGLVQAGGSLRLSCAASGFTFATYAMGWYRQAQGKERELVAAISRGTSTYYADSVKGRFTISRVNAKNTVYLQMNSLIPDDTAVYYCAATSSFRYDYWGKGTQVTVSS”, which “polyreactivity (PSR sort gate)” value is on record?
A: low polyreactivity

Q: With “QVQLVESGGGLVQAGGSLRLSCAASGSILTVYSMGWYRQAPGKERELVARIRSGDRTYYADSVKGRFTISRDNAKNTVYLQMNSLKPEDTAVYYCAAGSQRRYYHTNWDSFNYWGQGTQVTVSS” as the sequence, how does the “polyreactivity (PSR sort gate)” value read?
A: low polyreactivity

Q: With “QVQLVESGGGLVQAGGSLSLSCAASGSTFARYAMGWYRQAPGKERELVAAISITGSTYYADSVKGRFTISRDNAKNTVYLQMKSLKPEDTAVYYCNVKSKYRYGYWGQGTQVTVSS” as the sequence, how does the “polyreactivity (PSR sort gate)” value read?
A: high polyreactivity

Q: For “QVQLVESGGGLVQAGGSLRLSCAASGSIFRSNAMGWYRQPPGKERELVAAITLSGGSTYYADSVKVRFTISRDNAKNTVYLQMNSLKPEDTAVYYCAAAYYLFSIHDYWGQGNQVTVSS”, which “polyreactivity (PSR sort gate)” value is on record?
A: low polyreactivity

Q: For “QVQLVESGRGLVQAGGTLRLSCAASGRIFYWNAMGWYRQAHGKERELVAAISWSGGSTYYADSVKGRFTISRDNAKNTVYLQMNSLKPEDTAVYYCAADGGRRTYYVKYDYWGQGTQVTVSS”, which “polyreactivity (PSR sort gate)” value is on record?
A: low polyreactivity

Q: With “QVQLVESGGGLDQAGGSLRLSCAASGITFQGYAMGWYRQAPGKERELVAAINDSGSSTYYADSVKGRFTISRDNAKNTVYLQMNSLKPEDTAVYYCAAYLWFWGQGTQVTVSS” as the sequence, how does the “polyreactivity (PSR sort gate)” value read?
A: low polyreactivity

Q: Which “polyreactivity (PSR sort gate)” value does the source give for “QVQLVESGGGLVQAGGSLRLSCAASGSTFYSNAMGWYRQAPGKERELVASIRFSGVITTYADSVKGRFTISRDNAKNTVYLQMNSLKPEDTAVYYWAAGYLSTTAYDYWGQGTQVTVSS” here?
A: low polyreactivity

Q: With “QVQLVESAGGLVQAGGSLRLSCAASGLTYVPNAMGWYRQAPGKEREIVAAICNNGGRTYYADSVKGRFTISRDNAKNTVYLEMNSLKPEDTAVYYCAKYLSPGERHSYDYWGQGTQVTVSS” as the sequence, how does the “polyreactivity (PSR sort gate)” value read?
A: high polyreactivity

Q: Which “polyreactivity (PSR sort gate)” value does the source give for “QVQLVESGGGLVQAGGSLRLSCAASGLTIYYYAMGWYIQAPGKEREFVAAISWHGGSTYYADSVKGRFTISRDNAKNTVYLQMNSLKPEDTAVYYCAADIYLRGFHYDYWGLGTQVTVSS” here?
A: low polyreactivity

Q: Which “polyreactivity (PSR sort gate)” value does the source give for “QVQLVESGGGLVQAGGSLRLRCAASGRIFWSNAMGWYRQAPGKERELVAAISSGGSTNYADSEKGRFTISRDNAKNTVYLQMNSLKPEDTEVYYCATRGIQRGFSRWGGLDYWGQVTQVTVSS” here?
A: low polyreactivity

Q: For “QVQLVESGGGLVQAGGSLRLSCAASGIIFWRYAMGWYRQAPGKERELVAAISRRGGSTYYADSVKGRFTISRDNAKITVYLQMNSLKPEDTAVYYCAVLDWTLHYRSDYWGQGTQVTVSS”, which “polyreactivity (PSR sort gate)” value is on record?
A: high polyreactivity

Q: Which “polyreactivity (PSR sort gate)” value does the source give for “QVQLVESGGGLVQAGGSLRLSCAASGNTFTWYTMGWYRQAPGKERELVAVITSDGSTYYADSVKGRFTISRDNAKNTVYLQMNRLKPEDTAVYYCNALSADWYPEEDYWGQGTQVTVSS” here?
A: low polyreactivity

Q: With “QVQLVESGGGLVQEGGSLRLSCAASASIFRYNAMGWYRQAPGKERELVAAITSRDGSTYYADSVKGRFTISRDNAQNTVYFQMNSLKPEDTAVYYCAVQPDSGNYDSGIYDRVGMDYWGQGTQVTVSS” as the sequence, how does the “polyreactivity (PSR sort gate)” value read?
A: low polyreactivity

Q: For “QVQLQESGGGLMQAGGSQRLSCAASGSISYYSDMGWYRQAPGKEREFVAGIGYGTTTNYADSVKGRFTTSRDNAKKTVYLQMISIKPEDTAVYYCAAYQGNGYEFYYWGQGTQVTVRS”, which “polyreactivity (PSR sort gate)” value is on record?
A: low polyreactivity

Q: Which “polyreactivity (PSR sort gate)” value does the source give for “QVQLLESGGGLVQAGVSLRLRCAPSGGTHKYYTMALYRQAPGKERELDATIRWYGDSTSYADSVKGRFTISRDNAKNTVYLQMNSQNPEDTAVYSCNADYAWYQRKSTVEYDYWVQGTQVTVSS” here?
A: low polyreactivity

Q: For “QVQLVESGGGLVQAGGSLRLSCAASGFTFVRNAMGWYRQAPGKERELVAAISDRGGTYYADSVKGRFTISRDNAKNTVYLQMNSLKPEDTAVYYCAAKYWYPYQYSHGSFYYWGQVTQVTVSS”, which “polyreactivity (PSR sort gate)” value is on record?
A: high polyreactivity

Q: Which “polyreactivity (PSR sort gate)” value does the source give for “QVQLVESGGGLVQAGGSLRLSCAASGYTFPLYAMGWYIQAPGKETELVADINIGGASTYYADSVKGRFTISRDNAKNTVYLQMNSLKPEDTAVYYCAKEYYDGYFPTLDYDYWGQGTQVTVSS” here?
A: low polyreactivity

Q: With “QVQLVESGGGLVQAGGSLRLSCAASGFTFDSNGMGWYRQAPGKERELVAAISTGGSTYYADSVKGRFTISRDNAKTTVYIPMNSLKPEDTPVYYCARDTPYPDTWYGYWGQGTQVTVSS” as the sequence, how does the “polyreactivity (PSR sort gate)” value read?
A: low polyreactivity

Q: With “QVQLVESGGGLVQAGGSLRLSCAASGGIYGNYAMGWYRQAPGKERELVADITTGGSTYYADSVKGRFTISRDNAKNTVYLQMNSLKPEDTAVYYCNARSLFHRFSSYKYDYWGQGTQVTVST” as the sequence, how does the “polyreactivity (PSR sort gate)” value read?
A: high polyreactivity

Q: For “QVQLVESGGGLVQAGGSLRLSCAASGNIFSANAMVWDRQAPGKEREFVAAISSTGGSTYYADSVKGRFTISRDNAKNTVYLQMNSLIPEDTAVYYCAAYIRRYLHYDYWGQGSQVTVSS”, which “polyreactivity (PSR sort gate)” value is on record?
A: high polyreactivity

Q: For “QVQLVESGGGLVQAGGSLRLSSAASGRTFRYNAMGWYRQAPGKERELVAAIRRGGSTNYADSVKGRITISRDNAKNTVYLQMNSLKPEDTAFYFCAKGHPNDFGYWGQGTQVTVSS”, which “polyreactivity (PSR sort gate)” value is on record?
A: high polyreactivity

Q: For “QVQLVDSGGGLVQAGGSLRLSCAASGRIFRLYAMGWYRPAPGKERELVATITRSGVSTYYADSVKGRFTISRDNAKNTVYLQMNSLKPEDTAVYYCAVDRWGRYYATQYTFDYWGQGTQVTVSS”, which “polyreactivity (PSR sort gate)” value is on record?
A: high polyreactivity

Q: For “QVQLVESGGGLVQAGGSLRLSCAASGRIFPHYSMGWYRQAPGKERELVAANSWSGSSTYYADSVKGRFTISRDNAMNTVYLQMNSLKPEDTAVYYCNAVRRGIGYDYGYWGQGTQVTVSS”, which “polyreactivity (PSR sort gate)” value is on record?
A: high polyreactivity

Q: Which “polyreactivity (PSR sort gate)” value does the source give for “QVQLVESGGGFVQAGGSLRLSCAASGRTFNGYAMGWYTQAPGKERELVAGISWRGTSTYYSDSVKGRFTISRDNAKNTVYLQLNSLKPEDTAVYYCAASRYLLYDYWGQGTQVTVSS” here?
A: high polyreactivity

Q: For “QVQLVESGGGLVQAGGSLRLSCAASGRIFPYYAMGWYRQAPGKERELVAAISRSGGRTYYADSVKGRFTISRDNAKNTVYLQMNSLKPEDTAVYYCATPSKALPPHCRAILDYWGQGTQVTVSS”, which “polyreactivity (PSR sort gate)” value is on record?
A: high polyreactivity

Q: With “QVQLVESGGGLVQAGGSLRLSCAASGLIFYRNAMGWYRQAPGKERELVAAISVSGGSTYYADSVKGRFTISRDNAKNTVYLQMNSLKPEDTAVYYCAAKTWRSRGLEMDYWGQGTQVTVSS” as the sequence, how does the “polyreactivity (PSR sort gate)” value read?
A: high polyreactivity
